# Where two headings read alike, the source gives them in different places.
# B1: Switchdrug DARPin 18-A (designed binder)
# chain: MRGSHHHHHHGSDLGKKLLQAARAGQLDEVRELLKAGADVNAKDQYGRTPLHLAAIKGHLEIVEVLLKAGADVNAKDSLGYTPLHLAAVEGPLEIVEVLLKAGADVNAKDAYGQTPLHIAAAWGHLEIVEVLLKAVADVNAQDKSGKTPADLAARAGHQDIAEVLQKAAGSPTPTPTTPTPTPTTPTPTPTGSDLGQKLLEAAWAGQDDEVRELLKAGADVNAKNSRGWTPLHTAAQTGHLEIFEVLLKAGADVNAKNDKRVTPLHLAAALGHLEIVEVLLKAGADVNARDSWGTTPADLAAKYGHQDIAEVLQKAAGSPTPTPTTPTPTPTTPTPTPTGSDLDKKLLEAARAGQDDEVRILLKAGADVNAKDSTGWTPLHLAAPWGHPEIVEVLLKAGADVNAKDFQGWTPLHLAAAAGHLEIVEVLLKAGADVNAKDVYGWTPLHIAAASGHLEIVEVLLKAGADVNAKDWLGWTPLHLAASHGHLEIVEVLLKAGADVNAQDKSGKTPADLAARAGHQDIAEVLQKAA
# notes: also called 2-in-1 DARPin18 in Format A
# B2: Switchdrug DARPin 17-1 (designed binder)
# chain: MRGSHHHHHHGSDLGQKLLEAAWAGQDDEVRELLKAGADVNAKNSRGWTPLHTAAQTGHLEIFEVLLKAGADVNAKNDKRVTPLHLAAALGHLEIVEVLLKAGADVNARDSWGTTPADLAAKYGHQDIAEVLQKAAGSPTPTPTTPTPTPTTPTPTPTGSDLGKKLLQAARAGQLDEVRELLKAGADVNAKDSTGWTPLHLAAPWGHPEIVEVLLKAGADVNAKDFQGWTPLHLAAAAGHLEIVEVLLKAGADVNAKDWLGWTPLHLAASHGHLEIVEVLLKAGADVNAQDKSGKTPADLAARAGHQDIAEVLQKAA
# notes: also called 2-in-1 DARPin17 in Format 1
# B3: CD3-specific binding domain (SEQ ID NO: 3) (designed binder)
# chain: DLGQKLLEAAWAGQDDEVRELLKAGADVNAKNSRGWTPLHTAAQTGHLEIFEVLLKAGADVNAKNDKRVTPLHLAAALGHLEIVEVLLKAGADVNARDSWGTTPADLAAKYGHQDIAEVLQKAA
# modifications: biotinylated when used as immobilized SPR ligand (site not stated)
# notes: also called α-CD3 DARPin
# B4: Switchdrug DARPin 18-B (designed binder)
# chain: MRGSHHHHHHGSDLDKKLLEAARAGQDDEVRILLKAGADVNAKDSTGWTPLHLAAPWGHPEIVEVLLKAGADVNAKDFQGWTPLHLAAAAGHLEIVEVLLKAGADVNAKDVYGWTPLHIAAASGHLEIVEVLLKAGADVNAKDWLGWTPLHLAASHGHLEIVEVLLKAGADVNAQDKSGKTPADLAARAGHQDIAEVLQKAAGSPTPTPTTPTPTPTTPTPTPTGSDLGKKLLQAARAGQLDEVRELLKAGADVNAKDQYGRTPLHLAAIKGHLEIVEVLLKAGADVNAKDSLGYTPLHLAAVEGPLEIVEVLLKAGADVNAKDAYGQTPLHIAAAWGHLEIVEVLLKAVADVNAQDKSGKTPADLAARAGHQDIAEVLQKAAGSPTPTPTTPTPTPTTPTPTPTGSDLGQKLLEAAWAGQDDEVRELLKAGADVNAKNSRGWTPLHTAAQTGHLEIFEVLLKAGADVNAKNDKRVTPLHLAAALGHLEIVEVLLKAGADVNARDSWGTTPADLAAKYGHQDIAEVLQKAA
# notes: also called 2-in-1 DARPin18 in Format B
# B5: VEGF-binder (SEQ ID NO: 1) (designed binder)
# chain: DLDKKLLEAARAGQDDEVRILLKAGADVNAKDSTGWTPLHLAAPWGHPEIVEVLLKAGADVNAKDFQGWTPLHLAAAAGHLEIVEVLLKAGADVNAQDKSGKTPADLAADAGHEDIAEVLQKAA
# notes: said to be disclosed in WO 2016/156596
# Columns and labels:
# scCD3εγ [1] = target: T1, scCD3εγ; assay: ELISA: plate-bound biotinylated scCD3εγ, His-tagged construct titrated, no VEGF
# T1 chain 1: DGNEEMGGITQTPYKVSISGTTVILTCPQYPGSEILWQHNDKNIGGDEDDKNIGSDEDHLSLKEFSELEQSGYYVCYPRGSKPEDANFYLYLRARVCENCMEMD
# T1 chain 2: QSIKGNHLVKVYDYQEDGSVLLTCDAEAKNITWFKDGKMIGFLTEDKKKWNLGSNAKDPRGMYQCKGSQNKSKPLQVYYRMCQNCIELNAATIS
# Description: (§1) The difference in binding of Switchdrug DARPins to scCD3εγ in presence and absence of VEGF was assessed. […] Said Switchdrug DARPins were mixed with a constant concentration of VEGF (100 nM) and tested for binding to scCD3εγ. […] The difference in EC50 of a construct in presence and absence of VEGF can be referred to as the “activation window”.
# (§2) Switchdrug DARPins that were mixed with VEGF were titrated and pre-incubated for 1 day with VEGF in order to establish the thermodynamic equilibrium. These samples were loaded on the ELISA plate, incubated and washed, before the bound Switchdrug DARPins were detected as described above.
# scCD3εγ [2] = target: T1, scCD3εγ; assay: ELISA: plate-bound biotinylated scCD3εγ, His-tagged construct titrated in presence of 100 nM soluble VEGF
# Description: as §1, §2
# scCD3εγ [3] = target: T1, scCD3εγ; assay: ELISA: plate-bound biotinylated scCD3εγ, His-tagged construct titrated without and with 100 nM soluble VEGF
# Description: as §1, §2
# VEGF165 [4] = target: T2, VEGF165 (UniProt P15692-4 27-191, biotinylated in the ELISA of Example 4 (site not stated)); assay: ELISA: plate-bound biotinylated VEGF165, His-tagged construct titrated, no soluble VEGF, anti-His-HRP detection
# T2 construct: also called biotinylated VEGF165; soluble VEGF
# scCD3εγ [5] = target: T1, scCD3εγ; assay: ELISA: plate-bound biotinylated scCD3εγ, His-tagged construct titrated, no VEGF
# Description: as §1, §2
# scCD3εγ [6] = target: T1, scCD3εγ; assay: as above
# Description: as §2
# scCD3εγ [7] = target: T1, scCD3εγ; assay: ELISA: plate-bound biotinylated scCD3εγ, His-tagged construct titrated in presence of 100 nM soluble VEGF
# Description: as §1, §2
# scCD3εγ [8] = target: T1, scCD3εγ; assay: ELISA: plate-bound biotinylated scCD3εγ, His-tagged construct titrated without and with 100 nM soluble VEGF
# Description: as §1, §2
# scCD3εγ [9] = target: T1, scCD3εγ; assay: ELISA on scCD3εγ, DARPin titrated
# scCD3εγ [10] = target: T1, scCD3εγ; assay: SPR, bio-scCD3εγ coated on NAD chip, DARPin 333.33-4.11 nM
# scCD3εγ [11] = target: T1, scCD3εγ; assay: ELISA: plate-bound biotinylated scCD3εγ, His-tagged α-CD3 mono-DARPin titrated, no VEGF
# scCD3εγ [12] = target: T1, scCD3εγ; assay: as above
# scCD3εγ [13] = target: T1, scCD3εγ; assay: as above
# scCD3εγ [14] = target: T1, scCD3εγ; assay: as above
# scCD3εγ [15] = target: T1, scCD3εγ; assay: as above
# scCD3εγ [16] = target: T1, scCD3εγ; assay: as above
# scCD3εγ [17] = target: T1, scCD3εγ; assay: as above
# scCD3εγ [18] = target: T1, scCD3εγ; assay: ELISA: plate-bound biotinylated scCD3εγ, His-tagged α-CD3 mono-DARPin titrated in presence of 100 nM soluble VEGF
# Description: (§3) ELISA assays offer an easy and qualitative way to determine the binding of the Switchdrug DARPin constructs to a target. The difference in binding of Switchdrug DARPins to scCD3εγ in presence and absence of VEGF was assessed. […] Said Switchdrug DARPins were mixed with a constant concentration of VEGF (100 nM) and tested for binding to scCD3εγ. […] The difference in EC50 of a construct in presence and absence of VEGF can be referred to as the “activation window”.
# as §2
# scCD3εγ [19] = target: T1, scCD3εγ; assay: as above
# Description: as §3, §2
# scCD3εγ [20] = target: T1, scCD3εγ; assay: ELISA: plate-bound biotinylated scCD3εγ, His-tagged construct titrated in presence of 100 nM soluble VEGF
# Description: as §1, §2
# scCD3εγ [21] = target: T1, scCD3εγ; assay: ELISA: plate-bound biotinylated scCD3εγ, His-tagged construct titrated without and with 100 nM soluble VEGF
# Description: as §1, §2
# VEGF165 [22] = target: T2, VEGF165; assay: SPR (ProteOn), VEGF165 immobilized, single-trace 50 nM, 25 C
# VEGF165 [23] = target: T2, VEGF165; assay: ELISA: plate-bound biotinylated VEGF165, His-tagged binder titrated, anti-His-HRP detection
# Description: Binding is detected via an HRP-labeled anti-His antibody.
# Then a titration of the Switchdrug DARPins was applied, incubated and washed. Detection of bound his-tagged constructs was done by anti-RGS(his)4 mAb HRP conjugate, and detected by TMB substrate.
# T2 sequence (P15692 other isoform, or with tags, fused parts or gaps limits assumed): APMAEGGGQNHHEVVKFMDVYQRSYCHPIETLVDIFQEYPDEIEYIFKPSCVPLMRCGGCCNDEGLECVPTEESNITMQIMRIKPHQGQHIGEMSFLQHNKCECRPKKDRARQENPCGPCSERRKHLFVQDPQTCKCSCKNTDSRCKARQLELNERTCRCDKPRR
binder,measurement,setting,value
B1,EC50 (read off the curve),scCD3εγ [1],~200 nM
same,EC50 (read off the curve),scCD3εγ [2],~90 nM
same,shift in EC50 upon addition of 100 nM VEGF,scCD3εγ [3],~2 fold
same,EC50 (read off the curve),VEGF165 [4],~90 nM
B2,EC50 (read off the curve),scCD3εγ [5],~70 nM
same,EC50 (read off the curve),scCD3εγ [6],~50 nM
same,EC50 (read off the curve),scCD3εγ [7],~3 nM
same,shift in EC50 upon addition of 100 nM VEGF,scCD3εγ [8],~27 fold
B3,EC50 (read off the curve),scCD3εγ [9],~3 nM
same,Kd,scCD3εγ [10],2.03 nM
same,EC50 (read off the curve),scCD3εγ [11],~5 nM
same,EC50 (read off the curve),scCD3εγ [12],~5 nM
same,EC50 (read off the curve),scCD3εγ [13],~3 nM
same,EC50 (read off the curve),scCD3εγ [14],~3 nM
same,EC50 (read off the curve),scCD3εγ [15],~3 nM
same,EC50 (read off the curve),scCD3εγ [16],~3 nM
same,EC50 (read off the curve),scCD3εγ [17],~4 nM
same,EC50 (read off the curve),scCD3εγ [18],~4 nM
same,EC50 (read off the curve),scCD3εγ [19],~4 nM
B4,EC50 (read off the curve),scCD3εγ [20],~50 nM
same,shift in EC50 upon addition of 100 nM VEGF,scCD3εγ [21],~19 fold
same,EC50 (read off the curve),VEGF165 [4],~20 nM
B5,Kd,VEGF165 [22],0.21 nM
same,koff,VEGF165 [22],0.00014 s⁻¹
same,kon,VEGF165 [22],646000 M⁻¹ s⁻¹
same,EC50 (read off the curve),VEGF165 [23],~0.5 nM
